Laboratory results taken from US20210340252A1.

Target: human TIM-3 protein (coated on ELISA plates) (human) (UniProt Q8TDQ0)
Test: competition ELISA on plate-coated human TIM-3 against biotinylated WBP340-BMK8 (self-competition), detection with SA-HRP

IC50 (read off the curve): 2 nM
B1: WBP340-BMK8 (antibody, from another filing, human IgG4, V domains shown)
VH: QVQLVQSGAEVKKPGSSVKVSCKASGYTFTSYNMHWVRQAPGQGLEWMGDIYPGNGDTSYNQKFKGRVTITADKSTSTVYMELSSLRSEDTAVYYCARVGGAFPMDYWGQGTTVTVSS
VL: AIQLTQSPSSLSASVGDRVTITCRASESVEYYGTSLMQWYQQKPGKAPKLLIYAASNVESGVPSRFSGSGSGTDFTLTISSLQPEDFATYFCQQSRKDPSTFGGGTKVEIKR
